US20260008815A1, “CYCLIC PEPTIDE OR SALT THEREOF, AND USES THEREOF” (FUJIFILM Corporation, priority 2023, published 2026)
Numbered stars: 1 amine (or outer) side, 2 acyl side, 3 side chain; on linkers, the order of the positions; unused ones are H or OH. Bridge positions count the residues as written; N and C are the ends. Square brackets hold non-standard residues; d marks the D form. Ends that are not written are not given here. acetyl = acetyl (haloacetyl before ring closure) on the side-chain amine, O=C(C[*:1])[*:2]; COCH2 = acetyl group that carries the bridge; hCys = N[C@@H](CCS)C(=O)O

Columns and labels:
[1] = target: T1, Recombinant Human FGFR2 alpha (IIIc) Fc Chimera Protein (Homo sapiens, UniProt P21802); test: SPR binding affinity of chemically synthesized cyclic peptide to immobilized FGFR; settings: SPR binding amount at 10 nmol/L cyclic peptide, 25° C., per one molecule of FGFR; chemically synthesized product
T1 construct: Fc (chimera); purchased R&D systems 712-FR-050
Description: The binding affinity of the cyclic peptide to FGFR was evaluated using a surface plasmon resonance (SPR) method.
A CM5 sensor chip (Cytiva, 29149603) was set in Biacore-T200 (manufactured by Cytiva) which is a surface plasmon resonance device, and an HBS-EP buffer (Cytiva, BR100826) was added as a running buffer at a flow rate of 10 μL/min to equilibrate the flow channel. Next, 70 μL of a mixed aqueous solution of 0.2 mol/L 1-(3-dimethylaminopropyl)-3-ethylcarbodiimide (EDC) and 0.05 mol/L N-hydroxysuccinimide (NHS) was added to activate the sensor chip. Then, Recombinant Human FGFR2 alpha (IIIc) Fc Chimera Protein CF (R&D systems, 712-FR-050) prepared at 50 nmol/L in an Acetate 4.5 buffer (Cytiva, BR100350) was added thereto to perform immobilization at about 5000 RU. Thereafter, the blocking treatment was performed with an ethanolamine solution. In addition, in another flow channel of the same sensor chip, blocking treatment was performed immediately after activation without immobilizing FGFR.
A cyclic peptide diluted to 10 nmol/L using HBS-EP was added to each flow channel of the FGFR-immobilized sensor chip produced above at 25° C. for 10 minutes, then HBS-EP was allowed to flow as a running buffer for 30 minutes, and the binding of the cyclic peptide to FGFR was measured. Thereafter, a regeneration treatment of removing the bound cyclic peptide was performed by repeating the flow of a regeneration liquid in which sodium chloride powder was dissolved in Glysine 1.5 (Cytiva, BR100354) to a final concentration of 0.15 mol/L for 1 minute in each flow channel twice. The binding amount of the cyclic peptide was evaluated from the difference between the measured value of Biacore-T200 in the flow channel in which FGFR was immobilized and the measured value of Biacore-T200 in the flow channel in which FGFR was not immobilated, in a case where a 10 nmol/L cyclic peptide was allowed to flow.
The binding amount of the cyclic peptide evaluated above was normalized to the binding amount of the cyclic peptide molecules per one molecule of FGFR using the molecular weights of the cyclic peptide and FGFR, and the binding affinity to FGFR was evaluated according to the following evaluation criteria. The evaluation result preferably satisfies the evaluation criteria A, B, or C.

[2] = Molecular stability after reducing agent (DTT) treatment, LC; assay type: physicochemical; settings: residual rate after DTT aqueous solution, room temperature, 1 hour
Description: The molecular stability of the cyclic peptide was evaluated by analyzing an aqueous solution of the cyclic peptide treated with a reducing agent by liquid chromatography (LC).
The reducing agent treatment was performed under the following conditions based on the concentration of glutathione contained in the cells. 25 μL of a 0.2 mg/mL cyclic peptide aqueous solution was prepared, 58.8 μL of a 12.6 mmol/L DTT aqueous solution was added to the aqueous solution, and the mixture was incubated at room temperature for 1 hour to obtain an aqueous solution of the cyclic peptide treated with a reducing agent. The DTT aqueous solution was used by diluting a 1 mol/L (+−)-dithiothreitol (DTT) solution (FUJIFILM Wako Pure Chemical Corporation, 044-33871) with water. The total area of all the peaks in LC/MS of the cyclic peptide before the reducing agent treatment was set to 100%, and the proportion of the total area of all the peaks in LC/MS of the aqueous solution of the cyclic peptide treated with the reducing agent was determined to calculate the residual rate of the cyclic peptide, and the molecular stability was evaluated according to the following evaluation criteria. The evaluation result preferably satisfies the evaluation criteria A, B, or C.
The LC used for the evaluation of molecular stability was set to the following conditions. • LC device: Prominence series (pump, column oven, autosampler, detector) (manufactured by Shimadzu Corporation) • Detector: photodiode array detector (SPD-M20A), measurement wavelength of 280 nm • Column: TSKgel ODS-100V, inner diameter of 4.6 mm×length of 150 mm, particle diameter of 5 μm (manufactured by Tosoh Corporation) • Eluent A: solution containing 0.1% trifluoroacetic acid as solute, and solvent is 100% water • Eluent B: solution containing 0.1% trifluoroacetic acid as solute, and solvent is 100% acetonitrile • Flow rate: 1.0 mL/min • Injection amount: 25 μL • Gradient: 20% to 50%: Eluent B (0 to 15 minutes), 100%: Eluent B (15 minutes) • Column temperature: 40° C.

T1 sequence (P21802 with tags, fused parts or gaps limits assumed): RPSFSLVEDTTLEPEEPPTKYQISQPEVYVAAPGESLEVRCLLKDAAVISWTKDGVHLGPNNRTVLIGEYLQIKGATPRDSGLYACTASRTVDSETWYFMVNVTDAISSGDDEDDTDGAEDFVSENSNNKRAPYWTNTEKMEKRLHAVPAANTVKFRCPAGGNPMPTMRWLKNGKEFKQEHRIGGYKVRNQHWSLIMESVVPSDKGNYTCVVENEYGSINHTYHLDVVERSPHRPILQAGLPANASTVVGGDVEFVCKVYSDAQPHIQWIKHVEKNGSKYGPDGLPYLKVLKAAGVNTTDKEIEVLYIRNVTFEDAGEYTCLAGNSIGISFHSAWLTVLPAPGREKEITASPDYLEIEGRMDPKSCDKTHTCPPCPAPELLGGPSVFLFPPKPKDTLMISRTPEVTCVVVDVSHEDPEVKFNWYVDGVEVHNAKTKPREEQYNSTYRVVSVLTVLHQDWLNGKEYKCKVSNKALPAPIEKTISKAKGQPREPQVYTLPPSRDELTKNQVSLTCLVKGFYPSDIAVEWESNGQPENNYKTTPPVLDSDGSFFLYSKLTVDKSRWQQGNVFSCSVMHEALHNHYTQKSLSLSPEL

Row | Substance | Evaluation result of binding affinity to FGFR [1] | Evaluation result of reductive stability [2]
1 | 448 (YXEENYLDPEQYQYFIYFXYKKK; not fully specified; Description of Artificial Sequence: Cyclic peptide) [compound 448] | A (The binding amount is 0.7 molecules of the cyclic peptide/one molecule of FGFR or more.) | A (The residual rate of cyclic peptide is 90% or more.)
2 | 447 (YXEENYLDPEQYQYFIYFXYKKK; not fully specified; Description of Artificial Sequence: Cyclic peptide) [compound 447] | A (The binding amount is 0.7 molecules of the cyclic peptide/one molecule of FGFR or more.) | A (The residual rate of cyclic peptide is 90% or more.)
3 | 435 (QXPQNFINPVQWRYFQHYXNKKK; not fully specified; Description of Artificial Sequence: Cyclic peptide) [compound 435] | A (The binding amount is 0.7 molecules of the cyclic peptide/one molecule of FGFR or more.) | A (The residual rate of cyclic peptide is 90% or more.)
4 | 444 (YXEENYLDPEQYQYFIYFXYKKK; not fully specified; Description of Artificial Sequence: Cyclic peptide) [compound 444] | B (The binding amount is 0.5 molecules of the cyclic peptide/one molecule of FGFR or more and less than 0.7 molecules of cyclic peptide/one molecule of FGFR.) | A (The residual rate of cyclic peptide is 90% or more.)
5 | 443 (YXEENYLDPEQYQYFIYFXYKKK; not fully specified; Description of Artificial Sequence: Cyclic peptide) [compound 443] | A (The binding amount is 0.7 molecules of the cyclic peptide/one molecule of FGFR or more.) | A (The residual rate of cyclic peptide is 90% or more.)
6 | 433 (Q[hCys]PQNFINPVQWRYFQHYK(COCH2)NKKK; thioether 2-19 via acetyl) [compound 433] | A (The binding amount is 0.7 molecules of the cyclic peptide/one molecule of FGFR or more.) | A (The residual rate of cyclic peptide is 90% or more.)
7 | 449 (YXEENYLDPEQYQYFIYFXYKKK; not fully specified; Description of Artificial Sequence: Cyclic peptide) [compound 449] | A (The binding amount is 0.7 molecules of the cyclic peptide/one molecule of FGFR or more.) | A (The residual rate of cyclic peptide is 90% or more.)
8 | 439 (QXPQNFINPVQWRYFQHYXNKKK; not fully specified; Description of Artificial Sequence: Cyclic peptide) [compound 439] | A (The binding amount is 0.7 molecules of the cyclic peptide/one molecule of FGFR or more.) | A (The residual rate of cyclic peptide is 90% or more.)
9 | 453 (YXHENYLDPEQYQYFHYFKKKK; Description of Artificial Sequence: Cyclic peptide) [compound 453] | C (The binding amount is 0.1 molecules of cyclic peptide/one molecule of FGFR or more and less than 0.5 molecules of cyclic peptide/one molecule of FGFR.) | A (The residual rate of cyclic peptide is 90% or more.)
10 | 441 (QXPQNFINPVQWRYFQHYXNKKK; not fully specified; Description of Artificial Sequence: Cyclic peptide) [compound 441] | A (The binding amount is 0.7 molecules of the cyclic peptide/one molecule of FGFR or more.) | A (The residual rate of cyclic peptide is 90% or more.)
11 | 454 (XHENYLDPEQYQYFHYFKYKKK; Description of Artificial Sequence: Cyclic peptide) [compound 454] | C (The binding amount is 0.1 molecules of cyclic peptide/one molecule of FGFR or more and less than 0.5 molecules of cyclic peptide/one molecule of FGFR.) | B (The residual rate of the cyclic peptide is 70% or more and less than 90%)
12 | 434 (QXPQNFINPVQWRYFQHYXNKKK; not fully specified; Description of Artificial Sequence: Cyclic peptide) [compound 434] | A (The binding amount is 0.7 molecules of the cyclic peptide/one molecule of FGFR or more.) | A (The residual rate of cyclic peptide is 90% or more.)
13 | 442 (YXEENYLDPEQYQYFIYFKYKKK; not fully specified; Description of Artificial Sequence: Cyclic peptide) [compound 442] | A (The binding amount is 0.7 molecules of the cyclic peptide/one molecule of FGFR or more.) | A (The residual rate of cyclic peptide is 90% or more.)
14 | 451 (YCEENYLDPEQYQYFIYFCYKKK; disulfide 2-19) [compound 451] | D (The binding amount is less than 0.1 molecules of the cyclic peptide/one molecule of FGFR.) | D (The residual rate of the cyclic peptide is less than 50%)
15 | 440 (QXPQNFINPVQWRYFQHYXNKKK; not fully specified; Description of Artificial Sequence: Cyclic peptide) [compound 440] | A (The binding amount is 0.7 molecules of the cyclic peptide/one molecule of FGFR or more.) | A (The residual rate of cyclic peptide is 90% or more.)
16 | 446 (YKEENYLDPEQYQYFIYFXYKKK; Description of Artificial Sequence: Cyclic peptide) [compound 446] | A (The binding amount is 0.7 molecules of the cyclic peptide/one molecule of FGFR or more.) | A (The residual rate of cyclic peptide is 90% or more.)
17 | 452 (YXHENYLDPEQYQYFHYFKYKKK; Description of Artificial Sequence: Cyclic peptide) [compound 452] | A (The binding amount is 0.7 molecules of the cyclic peptide/one molecule of FGFR or more.) | A (The residual rate of cyclic peptide is 90% or more.)
18 | 437 (QK(COCH2)PQNFINPVQWRYFQHY[hCys]NKKK; thioether 2-19 via acetyl) [compound 437] | A (The binding amount is 0.7 molecules of the cyclic peptide/one molecule of FGFR or more.) | A (The residual rate of cyclic peptide is 90% or more.)
19 | 438 (QK(COCH2)PQNFINPVQWRYFQHY[hCys]NKKK; thioether 2-19 via acetyl) [compound 438] | A (The binding amount is 0.7 molecules of the cyclic peptide/one molecule of FGFR or more.) | A (The residual rate of cyclic peptide is 90% or more.)
